We go through two molecules from patent US20190016825A1 (JIANGSU HENGRUI MEDICINE, published 2019).

Assay [1] has as its target T1, PCSK9-BP15-His6 (human, UniProt Q8NBP7 31-692, biotin on the BP15 biotin receiving peptide).
T1 construct: It holds a signal peptide (underlined in print); also called WT PCSK9; bio-WT-PCSK9
The assay is described as follows: blocking ELISA, LDLR-FC (SEQ ID NO: 8) coated, bio-WT-PCSK9 plus antibody. The protocol: The blocking abilities of PCSK9 antibodies of the present invention to the binding of LDLR-FC (produced in-house, sequence is shown in SEQ ID NO: 8) to PCSK9 (SEQ ID NO: 5) were detected by measuring the amount of PCSK9 binding to LDLR in the presence of the antibodies.
LDLR-FC was diluted to 5 μg/ml with phosphate buffer and coated in the 96-well ELISA plate, then incubated at 4° C. overnight. The plate was washed and then blocked with Tris buffer (including 0.9 mM CaCl₂, 0.05% Tween 20 and 5% skim milk) at 37° C. for 2 hours. Then the plate was washed again and 100 μl/well of the mixture of biotin-labeled PCSK9 (bio-WT-PCSK9, diluted to the final concentration of 2 μg/ml with Tris buffer containing 0.9 mM CaCl₂, 0.05% Tween 20 and 1% skim milk) and antibody samples (diluted with Tris buffer containing 0.9 mM CaCl₂, 0.05% Tween 20 and 1% skim milk) were added and incubated at 37° C. for 1 hour. Then the plate was washed again and horseradish peroxidase-streptavidin (Sigma, CAT#52438) was added and incubated at 37° C. for 1 hour. Then the plate was washed and tetramethylbenzidine solution was added for development. Finally, the stop solution was added and the OD450 was measured on the Microplate reader, then IC50 was calculated.
(In general: ELISA stands for enzyme-linked immunosorbent assay.)

A further assay deals with T2, PCSK9-His6 (human, UniProt Q8NBP7 31-692, limits assumed).
T2 construct: also called human PCSK9 with His tag; huPCSK9
Description: BIAcore, antibody captured by human Fab capture molecule on CM5 chip, PCSK9-His6 in flow. An excerpt: According to the method described in the Human Fab Capture Kit (Cat. #28-9583-25, GE), the human Fab capture molecule was covalently linked to the CM5 biochip (Cat. # BR-1000-12, GE) so that the antibodies to be tested were affinity captured. Then, human PCSK9 antigen (human PCSK9 with His tag: PCSK9-His6, SEQ ID NO: 1) flowed through the surface of the biochip, and the reaction signal was detected in real time using a Biacore instrument to obtain the association and dissociation curves. Finally, the affinity values were obtained by fitting and are shown at table 9 below. After each cycle of dissociation was finished in the experiment, the biochip was washed and regenerated with regeneration solution in Human Fab Capture kit (GE).
Background: SPR reads the build-up and loss of mass on a sensor chip optically.

Assay [2] addresses T1, PCSK9-BP15-His6. Description: ELISA, bio-WT-PCSK9 captured on streptavidin plate. The procedure:
The binding ability of anti-PCSK9 antibodies of the present invention to PCSK9 was detected by measuring the amount of antibodies binding to wild-type PCSK9 protein (WT PCSK9, SEQ ID NO: 5) fixed on the ELISA plate.
Streptavidin (sigma, CAT#S4762) was diluted to 2 μg/ml with PBS and coated into 96-well ELISA plate, at 4° C. overnight. The plate was washed and then blocked with Tris buffer (including 0.9 mM CaCl2, 0.05% Tween 20 and 5% skim milk) at 37° C. for 2 hours. Then the plate was washed again and 100 μl/well of the biotin-labeled PCSK9, produced in-house, (bio-WT-PCSK9, diluted with Tris buffer containing 0.9 mM CaCl2, 0.05% Tween 20 and 1% skim milk), was added and incubated at 37° C. for 1 hour. After the wash step, different concentrations of diluted PCSK9 antibody samples was added to the plate and incubated at 37° C. for 1 hour. Then the plate was washed again and HRP-goat-anti-human (H+L) antibody (Jackson ImmunoResearch, CAT#109-035-088) was added and incubated at 37° C. for 1 hour. Then the plate was washed again and tetramethylbenzidine solution was added for development. Finally, the stop solution was added and the OD450 value was measured on the Microplate reader, and then EC50 was calculated.

In assay [3] the target is T3, PCSK9-D374Y-BP15-His6 (human, UniProt Q8NBP7 31-692, biotin on the BP15 biotin receiving peptide).
T3 construct: also called PCSK9-Y; mutant PCSK9
Description: ELISA, bio-PCSK9-Y captured on streptavidin plate. The procedure:
The binding ability of anti-PCSK9 antibodies of the present invention to PCSK9-Y was detected by measuring the amount of antibodies binding to PCSK9-Y (mutant PCSK9, SEQ ID NO: 6) fixed on the ELISA plate.
Streptavidin (sigma, CAT#54762) was diluted to 2 μg/ml with PBS and coated into 96-well ELISA plate at 4° C. overnight. The plate was washed and then blocked with Tris buffer (including 0.9 mM CaCl₂, 0.05% Tween 20 and 5% skim milk) at 37° C. for 2 hours. Then the plate was washed again and 100 μl/well of the biotin-labeled PCSK9-Y, produced in-house, (bio-PCSK9-Y, diluted with Tris buffer containing 0.9 mM CaCl₂, 0.05% Tween 20 and 1% skim milk) was added and incubated at 37° C. for 1 hour. After the wash step, different concentrations of diluted PCSK9 antibody samples were added to the plate and incubated at 37° C. for 1 hour. Then the plate was washed again and HRP-goat-anti-human (H+L) antibody (Jackson ImmunoResearch, CAT#109-035-088) was added and incubated at 37° C. for 1 hour. Then the plate was washed again and tetramethylbenzidine solution was added for development. Finally, the stop solution was added and the OD450 value was measured on the Microplate reader, and then EC50 was calculated.
The results of ELISA test for the binding ability of chimeric antibodies and back-mutated antibodies of the present invention to mutant PCSK9 are shown in table 6.

Assay [4] deals with T3, PCSK9-D374Y-BP15-His6. The assay is described as follows: blocking ELISA, LDLR-FC (SEQ ID NO: 8) coated, bio-PCSK9-Y plus antibody. The procedure:
The blocking abilities of anti-PCSK9 antibodies to the binding of LDLR-FC (SEQ ID NO: 8) to PCSK9-Y (mutant PCSK9, SEQ ID NO: 6) were detected by measuring the amount of PCSK9-Y binding to LDLR in the presence of the antibodies.
LDLR-FC was diluted to 2 μg/ml with phosphate buffer and coated in the 96-well ELISA plate (Costar, CAT#3590), then incubated at 4° C. overnight. The plate was washed and then blocked with Tris buffer (including 0.9 mM CaCl₂, 0.05% Tween 20 and 5% skim milk) at 37° C. for 2 hours. Then the plate was washed again and 100 μl/well of the mixture of biotin-labeled PCSK9-Y (bio-PCSK9-Y, diluted to final concentration of […] with Tris buffer containing 0.9 mM CaCl₂, 0.05% Tween 20 and 1% skim milk) and antibody samples (diluted with Tris buffer containing 0.9 mM CaCl₂, 0.05% Tween 20 and 1% skim milk) were added and incubated at 37° C. for 1 hour. Then the plate was washed again and horseradish peroxidase-streptavidin (sigma, CAT#S2438) was added and incubated at 37° C. for 1 hour. Then the plate was washed and tetramethylbenzidine solution was added for development. Finally, the stop solution was added and the OD450 value was measured on the Microplate reader, then IC50 was calculated.
The results of blocking test for the blocking effects of the chimeric antibodies and back-mutated antibodies of the present invention on the binding of LDLR-FC/PCSK9-Y are shown in table 7.

B1: h001-4-WT (antibody)
heavy: not shown
light: DIVMSQSPSSLSASVGDRVTITCKSSQSLLNSRTRKNFLAWYQQKPGKSPKLLIYWASTRESGVPDRFSGSGSGTDFTLTISSLQPEDFATYYCKQSFNLFTFGQGTKLEIKRTVAAPSVFIFPPSDEQLKSGTASVVCLLNNFYPREAKVQWKVDNALQSGNSQESVTEQDSKDSTYSLSSTLTLSKADYEKHKVYACEVTHQGLSSPVTKSFNRGEC
notes: both labels are treated as one molecule; also called H001-4 IgG1 format; h001_VH.1 + h001_VL.1C
As for B1, the IC50 (as a rule, the concentration needed to halve the response being measured) with PCSK9-BP15-His6 [1] worked out at 0.76 µg/mL; with PCSK9-D374Y-BP15-His6 [4] it was 0.53 µg/mL. Besides, in the assay with PCSK9-His6, binding was put at a Kd of 0.288 nM. Also, the EC50 (commonly the concentration at which the effect is half-maximal) in the assay with PCSK9-BP15-His6 [2] was 0.012 µg/mL; with PCSK9-D374Y-BP15-His6 [3], 0.0179 µg/mL.

B2: h001-4-YTE (antibody, human IgG1, kappa)
heavy: QVQLVQSGAEVKKPGASVKVSCKASGYTFTDYWMHWVRQAPGQGLEWMGYINPSSGFTKYHQNFKDRVTMTRDTSISTAYMELSRLRSDDTAVYYCARQYDYDEDWYFDVWGQGTTVTVSSASTKGPSVFPLAPSSKSTSGGTAALGCLVKDYFPEPVTVSWNSGALTSGVHTFPAVLQSSGLYSLSSVVTVPSSSLGTQTYICNVNHKPSNTKVDKKVEPKSCDKTHTCPPCPAPELLGGPSVFLFPPKPKDTLYITREPEVTCVVVDVSHEDPEVKFNWYVDGVEVHNAKTKPREEQYNSTYRVVSVLTVLHQDWLNGKEYKCKVSNKALPAPIEKTISKAKGQPREPQVYTLPPSRDELTKNQVSLTCLVKGFYPSDIAVEWESNGQPENNYKTTPPVLDSDGSFFLYSKLTVDKSRWQQGNVFSCSVMHEALHNHYTQKSLSLSPGK
light: DIVMSQSPSSLSASVGDRVTITCKSSQSLLNSRTRKNFLAWYQQKPGKSPKLLIYWASTRESGVPDRFSGSGSGTDFTLTISSLQPEDFATYYCKQSFNLFTFGQGTKLEIKRTVAAPSVFIFPPSDEQLKSGTASVVCLLNNFYPREAKVQWKVDNALQSGNSQESVTEQDSKDSTYSLSSTLTLSKADYEKHKVYACEVTHQGLSSPVTKSFNRGEC
notes: human kappa light chain; also called h001-4-IgG1-YTE
On to B2, for which binding with PCSK9-His6 was put at a Kd of 0.491 nM.
